Key:
[1] = molecular target: T1, human DPP4 protein expressed on 293T cells (293T-DPP4) (human, UniProt P27487 1-766); test: flow cytometry on 293T-DPP4 cells, PE goat anti-human IgG Fc secondary antibody
T1 construct: also called CD26
Method: The cells were washed twice with PBS, and then fluorescent secondary antibody R-PE-conjugated AffiniPure Goat Anti-Human IgG, Fcγ Fragment Specific (Jackson Immuno Research, Cat #109-116-098) was added. The cells were incubated at 4° C. for 30 min. The cells were washed twice with PBS and then resuspended, and finally, fluorescence signals were detected using the […] (BD Bioscience) flow cytometer. […] The antibodies were diluted at 1:100 with PBS, and the cell pellet was resuspended and incubated at 4° C. for 30 min. The cells were washed twice with PBS and then resuspended in 100 μL of PBS, and finally, fluorescence signals were detected using the […] (BD Bioscience) flow cytometer.

[2] = molecular target: T2, human FAP protein expressed on 293T cells (293T-human FAP) (human, UniProt Q12884 1-760); test: flow cytometry on 293T-human FAP cells, PE goat anti-human IgG Fc secondary antibody
T2 sequence: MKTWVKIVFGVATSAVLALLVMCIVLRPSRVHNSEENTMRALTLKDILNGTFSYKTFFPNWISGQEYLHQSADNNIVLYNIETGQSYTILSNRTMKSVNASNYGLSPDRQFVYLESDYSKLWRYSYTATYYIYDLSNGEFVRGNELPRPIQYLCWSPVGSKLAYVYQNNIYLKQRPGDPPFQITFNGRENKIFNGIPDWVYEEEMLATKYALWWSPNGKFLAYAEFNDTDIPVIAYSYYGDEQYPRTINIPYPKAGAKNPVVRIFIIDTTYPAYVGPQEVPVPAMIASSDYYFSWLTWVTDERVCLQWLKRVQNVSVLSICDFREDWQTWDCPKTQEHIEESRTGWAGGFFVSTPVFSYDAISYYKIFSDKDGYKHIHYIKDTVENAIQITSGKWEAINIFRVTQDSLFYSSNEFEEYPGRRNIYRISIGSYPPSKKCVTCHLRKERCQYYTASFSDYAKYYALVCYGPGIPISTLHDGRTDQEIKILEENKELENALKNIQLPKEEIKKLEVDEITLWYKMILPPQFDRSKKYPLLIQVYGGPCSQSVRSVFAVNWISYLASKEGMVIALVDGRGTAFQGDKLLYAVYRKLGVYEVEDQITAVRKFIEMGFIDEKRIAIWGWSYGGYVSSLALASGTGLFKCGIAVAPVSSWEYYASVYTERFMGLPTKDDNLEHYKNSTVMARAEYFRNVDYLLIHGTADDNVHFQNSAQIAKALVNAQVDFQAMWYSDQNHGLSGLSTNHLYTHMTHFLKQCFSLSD
Method: (§1) The cells were washed twice with PBS, and then fluorescent secondary antibody R-PE-conjugated AffiniPure Goat Anti-Human IgG, Fcγ Fragment Specific (Jackson Immuno Research, Cat #109-116-098) was added. The cells were incubated at 4° C. for 30 min. The cells were washed twice with PBS and then resuspended, and finally, fluorescence signals were detected using the […] (BD Bioscience) flow cytometer.

[3] = molecular target: T3, cynomolgus FAP protein expressed on 293T cells (293T-cynomolgus FAP) (cynomolgus monkey, UniProt Q12884 1-760 (human entry)); test: flow cytometry on 293T-cynomolgus FAP cells, PE goat anti-human IgG Fc secondary antibody
T3 sequence: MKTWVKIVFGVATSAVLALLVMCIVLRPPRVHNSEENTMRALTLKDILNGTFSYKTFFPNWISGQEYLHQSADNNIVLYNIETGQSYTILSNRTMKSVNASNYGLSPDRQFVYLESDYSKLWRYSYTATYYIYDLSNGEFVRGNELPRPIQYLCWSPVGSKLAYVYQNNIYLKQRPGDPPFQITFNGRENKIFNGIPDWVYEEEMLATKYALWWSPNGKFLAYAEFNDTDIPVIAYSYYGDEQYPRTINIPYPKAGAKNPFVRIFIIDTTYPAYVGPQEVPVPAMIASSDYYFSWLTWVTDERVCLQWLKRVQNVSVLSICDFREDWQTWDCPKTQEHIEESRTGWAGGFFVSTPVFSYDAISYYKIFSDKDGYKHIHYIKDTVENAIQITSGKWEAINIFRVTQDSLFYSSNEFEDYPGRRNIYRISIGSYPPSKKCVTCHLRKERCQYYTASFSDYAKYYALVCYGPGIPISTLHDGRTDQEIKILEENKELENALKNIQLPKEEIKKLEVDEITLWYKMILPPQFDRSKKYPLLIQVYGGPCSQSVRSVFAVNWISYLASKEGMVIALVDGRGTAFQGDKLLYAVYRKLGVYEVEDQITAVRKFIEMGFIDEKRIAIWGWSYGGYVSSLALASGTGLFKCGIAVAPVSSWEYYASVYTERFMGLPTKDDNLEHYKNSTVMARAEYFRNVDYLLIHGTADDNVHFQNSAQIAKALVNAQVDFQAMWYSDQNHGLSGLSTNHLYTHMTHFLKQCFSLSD
Method: as §1

[4] = molecular target: T4, recombinant human FAP protein (Sino Biological, Cat #10464-H07H) (human, UniProt Q12884 26-760); test: ELISA, human FAP protein coated on the plate, detection with HRP goat anti-human IgG F(ab')2; unit from the axis 'Antibody Conc[nM]' and paragraph 217
T4 construct: Bought protein
T4 sequence: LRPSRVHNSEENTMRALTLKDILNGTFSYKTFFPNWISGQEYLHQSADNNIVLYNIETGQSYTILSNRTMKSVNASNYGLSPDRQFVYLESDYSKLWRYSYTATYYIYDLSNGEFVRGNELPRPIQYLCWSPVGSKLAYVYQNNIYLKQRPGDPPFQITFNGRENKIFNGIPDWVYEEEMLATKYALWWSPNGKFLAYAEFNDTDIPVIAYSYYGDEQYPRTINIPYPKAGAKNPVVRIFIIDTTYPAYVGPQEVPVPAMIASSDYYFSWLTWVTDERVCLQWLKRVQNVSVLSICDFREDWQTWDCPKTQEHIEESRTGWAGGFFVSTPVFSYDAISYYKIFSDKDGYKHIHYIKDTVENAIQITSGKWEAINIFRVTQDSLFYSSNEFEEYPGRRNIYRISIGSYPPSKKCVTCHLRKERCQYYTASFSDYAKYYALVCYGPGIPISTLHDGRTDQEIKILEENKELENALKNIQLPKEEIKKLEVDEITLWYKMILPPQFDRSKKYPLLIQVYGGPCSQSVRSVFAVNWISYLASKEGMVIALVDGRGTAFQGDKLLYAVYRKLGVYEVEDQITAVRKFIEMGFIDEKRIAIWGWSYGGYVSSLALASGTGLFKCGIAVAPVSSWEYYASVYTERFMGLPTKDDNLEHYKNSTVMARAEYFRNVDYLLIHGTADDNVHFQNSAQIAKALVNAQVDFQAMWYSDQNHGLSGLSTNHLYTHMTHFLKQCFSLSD
Method: Human FAP protein (Sino Biological, Cat #10464-H07H) was immobilized on a 96-well plate by incubation overnight in a PBS buffer at 4° C. The plate was then blocked by incubation with a PBS containing 1% of BSA for 1 h at 37° C. After blocking, the plate was washed thrice with PBST (PBS containing 0.05% of Tween 20). […] After binding, the plate was washed thrice with PBST, incubated at 37° C. for 1 h with peroxidase-labeled goat anti-human IgG, F(ab′)₂ fragment specific (Jackson Immuno Research, Cat #109-035-097) diluted at 1/15,000 in the binding buffer, washed again, subjected to a chromogenic reaction with TMB, and quenched with 1 M H₂SO₄.

[5] = molecular target: T2, human FAP protein expressed on 293T …; test: flow cytometry on 293T-human FAP cells (panel title on the sheet), PE goat anti-human IgG Fc secondary antibody
Method: as §1

[6] = molecular target: T3, cynomolgus FAP protein expressed on …; test: flow cytometry on 293T-cynomolgus FAP cells (panel title on the sheet), PE goat anti-human IgG Fc secondary antibody
Method: as §1

T1 sequence (P27487 whole entry): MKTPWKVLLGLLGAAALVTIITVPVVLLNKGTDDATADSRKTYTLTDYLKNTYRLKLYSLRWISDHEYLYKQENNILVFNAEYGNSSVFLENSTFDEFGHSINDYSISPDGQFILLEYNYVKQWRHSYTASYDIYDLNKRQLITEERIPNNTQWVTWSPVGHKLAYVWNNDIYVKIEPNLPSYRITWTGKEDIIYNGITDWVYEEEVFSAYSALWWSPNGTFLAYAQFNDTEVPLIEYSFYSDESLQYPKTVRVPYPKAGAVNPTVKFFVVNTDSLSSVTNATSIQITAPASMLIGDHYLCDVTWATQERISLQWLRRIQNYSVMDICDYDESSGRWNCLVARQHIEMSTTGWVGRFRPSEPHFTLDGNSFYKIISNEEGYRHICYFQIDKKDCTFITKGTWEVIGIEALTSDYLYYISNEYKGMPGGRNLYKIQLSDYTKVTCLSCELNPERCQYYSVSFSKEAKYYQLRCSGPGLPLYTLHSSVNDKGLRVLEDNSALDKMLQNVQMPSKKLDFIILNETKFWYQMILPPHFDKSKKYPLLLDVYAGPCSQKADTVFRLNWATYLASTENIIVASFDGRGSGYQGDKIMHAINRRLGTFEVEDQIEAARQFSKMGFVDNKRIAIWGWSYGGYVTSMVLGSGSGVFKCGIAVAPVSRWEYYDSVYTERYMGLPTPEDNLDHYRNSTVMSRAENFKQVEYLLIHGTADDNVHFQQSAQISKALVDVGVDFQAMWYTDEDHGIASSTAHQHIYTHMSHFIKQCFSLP

B1: sibrotuzumab (humanized reference antibody) (antibody, human IgG1, kappa, V domains shown)
VH: QVQLVQSGAEVKKPGASVKVSCKTSRYTFTEYTIHWVRQAPGQRLEWIGGINPNNGIPNYNQKFKGRVTITVDTSASTAYMELSSLRSEDTAVYYCARRRIAYGYDEGHAMDYWGQGTLVTVSS
VL: DIVMTQSPDSLAVSLGERATINCKSSQSLLYSRNQKNYLAWYQQKPGQPPKLLIFWASTRESGVPDRFSGSGFGTDFTLTISSLQAEDVAVYYCQQYFSYPLTFGQGTKVEIKR
binding result [1]: no binding (tested: 10 µg/mL)
EC50 (read off the curve) [2]: ~2 nM
EC50 (read off the curve) [3]: ~1 nM
EC50 [4]: 0.0863 nM

B2: humanized anti-FAP antibody huF19-LG (antibody, human IgG1, kappa, V domains shown)
VH: QVQLVQSGAEVKKPGASVKVSCKASGYTFTEYTIHWVRQATGQGLEWIGGINPNNGIPNYNQKFKGRATMTVGTSISTAYMELSSLRSEDTAVYFCARRRIAYGYDEGHAMDYWGQGTLVTVSS
VL: DIQMTQSPSSLSASVGDRVTITCKSSQSLLYSRNQKNYLAWFQQKPGKAPKLLIFWASTRESGVPSRFTGSGFGTDFTLTISSLQPEDFATYYCQQYFSYPLTFGQGTKLEIKR
notes: Humanized from murine F19
binding result [1]: no binding (tested: 10 µg/mL)
EC50 (read off the curve) [2]: ~2 nM
EC50 (read off the curve) [3]: 1 to 2 nM
EC50 (read off the curve) [5]: ~3 nM
EC50 (read off the curve) [6]: ~4 nM
EC50 [4]: 0.0926 nM

B3: mutant humanized FAP antibody huF19-LG-NGR (antibody, human IgG1, kappa, V domains shown)
VH: QVQLVQSGAEVKKPGASVKVSCKASGYTFTEYTIHWVRQATGQGLEWIGGINPNNRIPNYNQKFKGRATMTVGTSISTAYMELSSLRSEDTAVYFCARRRIAYGYDEGHAMDYWGQGTLVTVSS
VL: DIQMTQSPSSLSASVGDRVTITCKSSQSLLYSRNQKNYLAWFQQKPGKAPKLLIFWASTRESGVPSRFTGSGFGTDFTLTISSLQPEDFATYYCQQYFSYPLTFGQGTKLEIKR
notes: huF19-LG with G56R (Kabat) in HCDR2; also called optimized FAP antibody; mutant antibody
EC50 (read off the curve) [5]: ~2 nM
EC50 (read off the curve) [6]: ~3 nM

Source: patent publication US20260265409A1 (NANJING LEADS BIOLABS, published 2026)
